Source: PMC10397247

Legend:
Assay in all cases: two-hybrid library CCmax;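 note: natural log of median RNA to DNA barcode read ratio; higher means stronger binding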
4H1384-AA = target: T1, 4H1384-AA; settings: mean of both orientations
T1 chain: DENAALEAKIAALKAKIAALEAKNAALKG

4H3049-AA = target: T2, 4H3049-AA; settings: mean of both orientations
T2 chain: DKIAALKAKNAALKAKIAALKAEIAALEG

4H63-AA = target: T3, 4H63-AA; settings: mean of both orientations
T3 chain: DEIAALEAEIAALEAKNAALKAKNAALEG

4H3449-AA = target: T4, 4H3449-AA; settings: mean of both orientations
T4 chain: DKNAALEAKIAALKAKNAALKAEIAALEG

4H133-AA = target: T5, 4H133-AA; settings: mean of both orientations
T5 chain: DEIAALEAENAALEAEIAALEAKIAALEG

4H324-AA = target: T6, 4H324-AA; settings: mean of both orientations
T6 chain: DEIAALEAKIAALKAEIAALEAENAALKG

4H3777-AA = target: T7, 4H3777-AA; settings: mean of both orientations
T7 chain: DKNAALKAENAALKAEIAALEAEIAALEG

4H1593-AA = target: T8, 4H1593-AA; settings: mean of both orientations
T8 chain: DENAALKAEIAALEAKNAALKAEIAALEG

4H432-AA = target: T9, 4H432-AA; settings: mean of both orientations
T9 chain: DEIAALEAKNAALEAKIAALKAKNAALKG

4H249-AA = target: T10, 4H249-AA; settings: mean of both orientations
T10 chain: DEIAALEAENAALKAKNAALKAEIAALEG

4H1349-AA = target: T11, 4H1349-AA; settings: mean of both orientations
T11 chain: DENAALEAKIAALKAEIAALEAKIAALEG

4H1449-AA = target: T12, 4H1449-AA; settings: mean of both orientations
T12 chain: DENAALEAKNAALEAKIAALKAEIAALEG

4H3629-AA = target: T13, 4H3629-AA; settings: mean of both orientations
T13 chain: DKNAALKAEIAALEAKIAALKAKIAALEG

4H2903-AA = target: T14, 4H2903-AA; settings: mean of both orientations
T14 chain: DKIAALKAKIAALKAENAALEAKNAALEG

4H3619-AA = target: T15, 4H3619-AA; settings: mean of both orientations
T15 chain: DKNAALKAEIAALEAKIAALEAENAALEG

4H2621-AA = target: T16, 4H2621-AA; settings: mean of both orientations
T16 chain: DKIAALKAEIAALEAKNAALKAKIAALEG

4H2580-AA = target: T17, 4H2580-AA; settings: mean of both orientations
T17 chain: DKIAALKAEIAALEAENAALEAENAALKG

4H2961-AA = target: T18, 4H2961-AA; settings: mean of both orientations
T18 chain: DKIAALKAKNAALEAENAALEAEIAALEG

4H446-AA = target: T19, 4H446-AA; settings: mean of both orientations
T19 chain: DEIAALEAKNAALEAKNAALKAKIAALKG

4H2760-AA = target: T20, 4H2760-AA; settings: mean of both orientations
T20 chain: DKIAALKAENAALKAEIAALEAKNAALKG

4H3094-AA = target: T21, 4H3094-AA; settings: mean of both orientations
T21 chain: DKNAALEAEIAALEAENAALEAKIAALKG

4H3974-AA = target: T22, 4H3974-AA; settings: mean of both orientations
T22 chain: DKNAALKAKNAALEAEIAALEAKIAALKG

4H2774-AA = target: T23, 4H2774-AA; settings: mean of both orientations
T23 chain: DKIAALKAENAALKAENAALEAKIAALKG

4H341-AA = target: T24, 4H341-AA; settings: mean of both orientations
T24 chain: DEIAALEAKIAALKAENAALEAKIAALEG

4H2947-AA = target: T25, 4H2947-AA; settings: mean of both orientations
T25 chain: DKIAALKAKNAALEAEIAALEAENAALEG

4H2604-AA = target: T26, 4H2604-AA; settings: mean of both orientations
T26 chain: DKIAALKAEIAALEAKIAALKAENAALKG

4H1262-AA = target: T27, 4H1262-AA
T27 chain: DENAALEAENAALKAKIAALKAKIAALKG

4H1878-AA = target: T28, 4H1878-AA; settings: mean of both orientations
T28 chain: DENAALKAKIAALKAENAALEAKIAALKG

4H380-AA = target: T29, 4H380-AA; settings: mean of both orientations
T29 chain: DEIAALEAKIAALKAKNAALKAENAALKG

4H235-AA = target: T30, 4H235-AA; settings: mean of both orientations
T30 chain: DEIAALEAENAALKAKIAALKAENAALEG

4H3915-AA = target: T31, 4H3915-AA; settings: mean of both orientations
T31 chain: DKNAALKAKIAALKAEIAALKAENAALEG

interaction score (4H1384-AA): -0.839 | interaction score (4H3049-AA): 1.23 | interaction score (4H63-AA): -0.668 | interaction score (4H3449-AA): -0.766 | interaction score (4H133-AA): 1.64 | interaction score (4H324-AA): -1.15 | interaction score (4H3777-AA): 2.49 | interaction score (4H1593-AA): -1.34 | interaction score (4H432-AA): -1.48 | interaction score (4H249-AA): -0.555 | interaction score (4H1349-AA): 0.283 | interaction score (4H1449-AA): -0.611 | interaction score (4H3629-AA): -0.649 | interaction score (4H2903-AA): -1.83 | interaction score (4H3619-AA): 1.07 | interaction score (4H2621-AA): -1.25 | interaction score (4H2580-AA): -1.41 | interaction score (4H2961-AA): -0.013 | interaction score (4H446-AA): -1.67 | interaction score (4H2760-AA): 1.09 | interaction score (4H3094-AA): -0.633 | interaction score (4H3974-AA): 1.62 | interaction score (4H2774-AA): 1.29 | interaction score (4H341-AA): -1.06 | interaction score (4H2947-AA): 0.251 | interaction score (4H2604-AA): -0.779 | interaction score (4H1262-AA): 0.551 | interaction score (4H1878-AA): -1.09 | interaction score (4H380-AA): -1.85 | interaction score (4H235-AA): -0.797 | interaction score (4H3915-AA): -0.487
B1: 4H1262-AA (peptide)
chain: DENAALEAENAALKAKIAALKAKIAALKG
